Assay results taken from patent US20220119492A1 (MEDIKINE, published 2022).

T1: human IL-2Rβ (CD122 protein, Fc Tag) (27-239) (human, UniProt P14784 27-239)
T1 construct: range 27-239; Bought protein; also called hu-IL-2Rβ subunit; IL-2Rβ subunit; not shown: Fc tag of the bought protein
T1 sequence (looked up): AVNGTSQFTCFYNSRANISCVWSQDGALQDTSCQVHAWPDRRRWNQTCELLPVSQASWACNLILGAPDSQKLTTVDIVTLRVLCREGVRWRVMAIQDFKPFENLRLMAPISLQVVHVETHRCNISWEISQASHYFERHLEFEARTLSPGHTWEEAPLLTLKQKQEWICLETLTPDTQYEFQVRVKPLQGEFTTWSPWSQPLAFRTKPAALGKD

T2: human IL-2Rγc (CD132 protein, Fc Tag) (23-254) (human, UniProt P31785 23-254)
T2 construct: range 23-254; Bought protein; also called hu-IL-2Rγc subunit; IL-2Rγc subunit; not shown: Fc tag of the bought protein
T2 sequence (looked up): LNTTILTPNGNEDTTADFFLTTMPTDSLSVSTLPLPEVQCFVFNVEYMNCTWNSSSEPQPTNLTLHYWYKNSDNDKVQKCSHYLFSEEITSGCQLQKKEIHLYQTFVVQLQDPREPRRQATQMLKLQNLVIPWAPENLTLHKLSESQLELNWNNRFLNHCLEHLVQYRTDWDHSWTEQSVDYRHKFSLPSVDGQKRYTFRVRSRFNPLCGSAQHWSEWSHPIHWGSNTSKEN

B1: IL-2Rβ ligand SEQ ID NO: 58 (peptide)
peptide: YDCRIAQVGELCDL
notes: Used as synthetic peptide and as phage clone; also called family 1
B2: IL-2Rβ ligand SEQ ID NO: 1044 (peptide)
peptide: RSCYYKRPRLWCSE
notes: Used as synthetic peptide and as phage clone; also called family 4
B3: IL-2Rγc ligand SEQ ID NO: 198 (peptide)
peptide: KVCEMWGGVLLCWN
notes: Used as phage clone; also called family 1A
B4: IL-2Rγc ligand SEQ ID NO: 1032 (peptide)
peptide: SLLKCYNASTCASVF
notes: Used as synthetic peptide and as phage clone; also called family 5
B5: IL-2Rβ ligand SEQ ID NO: 169 (peptide)
peptide: NMCLVGDYWPSCQI
notes: also called family 2A
B6: IL-2Rγc ligand SEQ ID NO: 248 (peptide)
peptide: DLSDLSTFWLSQ
notes: Used as synthetic peptide and as phage clone; also called family 3
B7: IL-2Rγc ligand SEQ ID NO: 224 (peptide)
peptide: DCSMWEGVELCW
notes: Used as synthetic peptide and as phage clone; also called family 1B
B8: IL-2Rγc ligand SEQ ID NO: 236 (peptide)
peptide: MCWLEWGEWVGSCL
notes: Used as synthetic peptide and as phage clone; also called family 2
B9: IL-2Rγc ligand SEQ ID NO: 266 (peptide)
peptide: CPSMLQGPERTWVC
notes: Used as phage clone; also called family 4
B10: IL-2Rβ ligand SEQ ID NO: 1034 (peptide)
peptide: CGMAIGDLCMWT
notes: Used as phage clone; also called family 2C
B11: IL-2Rβ ligand SEQ ID NO: 1042 (peptide)
peptide: RWGDVGDLLMPL
notes: also called family 2C
B12: IL-2Rβ ligand SEQ ID NO: 170 (peptide)
peptide: QICDVGQWWPDCQV
notes: Used as phage clone; also called family 2A
B13: IL-2Rγc ligand SEQ ID NO: 202 (peptide)
peptide: RTCTEWENVVLCWV
notes: also called family 1A

Columns and labels:
[1] = target: T1, human IL-2Rβ (CD122 protein, Fc Tag) …; experiment: competitive binding ELISA (Example 28)
Experimental: (§1) In this example, IL-2R ligands were diluted to 2-times final assay concentration in PBT (1×PBS pH 7.2, 0.5% Bovine Serum Albumin, 0.05% Tween®20) and serially diluted. Fifty (50) μL was added to the appropriate wells. The plates were then incubated at 4° C. for 1 hr.
(§2) Without washing, fifty (50) μL of representative phage were added to the assay wells (phage tracer). The plates were then incubated at 4° C. for 45 min.

[2] = target: T2, human IL-2Rγc (CD132 protein, Fc Tag) …; experiment: competitive binding ELISA (Example 28)
Experimental: as §1, §2

Binder	IC50 [1] [µM]	IC50 [2] [µM]
B1	< 10	
B2	< 10	
B3		< 10
B4		< 10
B5	< 10	
B6		< 10
B7		< 10
B8		< 10
B9		< 10
B10	< 10	
B11	< 10	
B12	< 10	
B13		< 10
